Assay results published in patent publication US20100291088A1 (published 2010).

Target: (4C/A)-huIL-18 (human, UniProt Q14116 37-193)
Test: cell-based or functional assay

B1: IL-18BP-Fc (Fc fusion, UniProt O95998 31-194, looked up, not shown: a dimerising Fc or GST)
chain: TPVSQTTTAATASVRSTKDPCPSQPPVFPAAKQCPALEVTWPEVEVPLNGTLSLSCVACSRFPNFSILYWLGNGSFIEHLPGRLWEGSTSRERGSTGTQLCKALVLEQLTPALHSTNFSCVLVDPEQVVQRHVVLAQLWAGLRATLPPTQEALPSSHSSPQQQG
KG-1 neutralization potency in vitro (IC50, nM): 0.03 nM
